Reference: doi:10.1101/2025.07.23.666473

Target: NaV1.5 (mouse (endogenous in heart)) (UniProt Q9JJV9)
Assay: co-IP

Chain of UniProt Q9JJV9 (Q9JJV9 whole entry): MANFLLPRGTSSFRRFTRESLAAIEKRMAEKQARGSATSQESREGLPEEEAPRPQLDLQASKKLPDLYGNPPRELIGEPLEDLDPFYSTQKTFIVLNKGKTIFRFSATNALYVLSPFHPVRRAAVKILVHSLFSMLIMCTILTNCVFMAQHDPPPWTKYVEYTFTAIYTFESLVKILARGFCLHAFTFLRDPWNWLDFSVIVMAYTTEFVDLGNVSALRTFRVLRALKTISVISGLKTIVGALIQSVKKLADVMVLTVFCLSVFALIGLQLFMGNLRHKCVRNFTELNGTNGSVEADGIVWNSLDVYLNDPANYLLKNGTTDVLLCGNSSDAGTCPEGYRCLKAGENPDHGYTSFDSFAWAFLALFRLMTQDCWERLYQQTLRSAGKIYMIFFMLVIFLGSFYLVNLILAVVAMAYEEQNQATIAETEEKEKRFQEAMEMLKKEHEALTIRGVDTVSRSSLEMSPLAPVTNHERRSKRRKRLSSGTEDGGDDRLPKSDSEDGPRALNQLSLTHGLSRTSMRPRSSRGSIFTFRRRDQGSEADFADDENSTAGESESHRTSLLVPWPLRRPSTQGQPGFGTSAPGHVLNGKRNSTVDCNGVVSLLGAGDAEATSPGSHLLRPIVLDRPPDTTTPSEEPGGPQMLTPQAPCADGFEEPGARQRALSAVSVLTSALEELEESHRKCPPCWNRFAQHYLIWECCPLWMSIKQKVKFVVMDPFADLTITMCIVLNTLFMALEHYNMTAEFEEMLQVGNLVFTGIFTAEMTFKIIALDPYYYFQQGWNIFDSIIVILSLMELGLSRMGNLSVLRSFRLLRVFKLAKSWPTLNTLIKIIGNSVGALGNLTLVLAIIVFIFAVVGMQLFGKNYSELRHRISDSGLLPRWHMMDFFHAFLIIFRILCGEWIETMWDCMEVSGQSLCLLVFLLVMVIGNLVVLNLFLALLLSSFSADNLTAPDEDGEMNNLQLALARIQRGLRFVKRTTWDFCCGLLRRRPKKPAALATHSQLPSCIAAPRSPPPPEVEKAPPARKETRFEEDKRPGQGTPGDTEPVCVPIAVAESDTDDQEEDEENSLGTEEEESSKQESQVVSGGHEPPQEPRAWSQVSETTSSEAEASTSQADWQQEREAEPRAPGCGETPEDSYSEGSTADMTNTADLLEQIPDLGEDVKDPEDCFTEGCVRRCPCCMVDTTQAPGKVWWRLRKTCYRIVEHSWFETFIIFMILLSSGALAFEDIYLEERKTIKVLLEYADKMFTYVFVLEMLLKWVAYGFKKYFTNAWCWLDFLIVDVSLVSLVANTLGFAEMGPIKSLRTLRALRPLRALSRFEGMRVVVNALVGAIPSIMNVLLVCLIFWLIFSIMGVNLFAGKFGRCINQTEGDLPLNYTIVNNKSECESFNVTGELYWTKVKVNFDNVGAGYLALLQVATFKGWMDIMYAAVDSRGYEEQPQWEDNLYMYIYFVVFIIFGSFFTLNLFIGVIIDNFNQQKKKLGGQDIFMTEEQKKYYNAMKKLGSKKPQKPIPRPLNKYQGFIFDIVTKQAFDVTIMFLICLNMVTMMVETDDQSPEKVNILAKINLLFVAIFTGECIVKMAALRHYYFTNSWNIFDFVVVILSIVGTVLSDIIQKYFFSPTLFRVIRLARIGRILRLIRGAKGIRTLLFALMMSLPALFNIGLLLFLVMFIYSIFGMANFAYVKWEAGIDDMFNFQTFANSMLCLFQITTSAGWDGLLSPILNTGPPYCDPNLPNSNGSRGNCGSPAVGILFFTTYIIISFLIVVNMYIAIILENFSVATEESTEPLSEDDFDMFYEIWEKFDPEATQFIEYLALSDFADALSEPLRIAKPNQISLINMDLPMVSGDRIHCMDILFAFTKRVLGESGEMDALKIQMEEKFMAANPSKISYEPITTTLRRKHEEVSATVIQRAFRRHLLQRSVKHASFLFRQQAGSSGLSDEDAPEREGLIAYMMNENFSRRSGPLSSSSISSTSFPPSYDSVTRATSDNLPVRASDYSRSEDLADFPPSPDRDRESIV

FGF13 (from UniProt P70377 1-245) (natural protein)
percent of total FGF13 depleted with NaV1.5 (in complex): 35%
